Experimental data: patent US20110135573A1, “METALLOPROTEINASE 9 AND METALLOPROTEINASE 2 BINDING PROTEINS” (DYAX CORP., priority 2009, published 2011)
Residue numbers refer to the chain shown, from its start.

B1: M0301-D12 (Fab, V domains shown)
VH: EVQLLESGGGLVQPGGSLRLSCAASGFTFSMYDMWWVRQAPGKGLEWVSVIYSSGGYTSYADSVKGRFTISRDNSKNTLYLQMNSLRAEDTAVYYCAKDRAYGDYVGWNGFDYWGQGTLVTVSS
VL: DIQMTQSPATLSLSPGERATLSCRASQSISSFLAWYQQKPGQAPRLLIYDASYRATGIPARFSGSGSGTDFTLTISSLEPEDYAVYYCQQRGNWPITFGQGTRLEIK
B2: M0273-C10 (Fab, V domains shown)
VH: B1 VH with M31F, D33P, V50Y, S53P, Y57A, S59F
VL: B1 VL
B3: M0299-A12 (Fab, V domains shown)
VH: B1 VH with M31H, D33P, V50Y, Y52S, Y57G, S59F
VL: B1 VL
B4: M0273-B10 (Fab, V domains shown)
VH: B1 VH with M31K, D33A, W35I, V50W, Y52P, S53P
VL: B1 VL
B5: M0272-H08 (Fab, V domains shown)
VH: B1 VH with M31A, S53P, Y57T, S59F
VL: B1 VL
B6: M0275-D03 (Fab, V domains shown)
VH: EVQLLESGGGLVQPGGSLRLSCAASGFTFSQYDMWWVRQAPGKGLEWVSVIYPSGTTFYADSVKGRFTISRDNSKNTLYLQMNSLRAEDTAVYYCAKDRAYGDYVGWNGFDYWGQGTLVTVSS
VL: B1 VL
B7: M0274-G08 (Fab, V domains shown)
VH: B1 VH with M31V, S53P, Y57A, S59Y
VL: B1 VL
B8: M0275-E12 (Fab, V domains shown)
VH: B1 VH with M31H, Y57F, S59G
VL: B1 VL
B9: M0256-D11 (Fab, V domains shown)
VH: B1 VH with M31H, Y57P, S59F
VL: B1 VL
B10: M0307-F04 (Fab, V domains shown)
VH: B1 VH with M31L, S59G
VL: B1 VL
B11: M0273-A11 (Fab, V domains shown)
VH: B1 VH with M31R, Y52S, S53P, Y57A, S59F
VL: B1 VL
B12: M0273-G07 (Fab, V domains shown)
VH: B1 VH with M31H, S53P, Y57P, S59Y
VL: B1 VL
B13: M0276-F11 (Fab, V domains shown)
VH: B1 VH with M31W, Y57P, S59F
VL: B1 VL
B14: M0301-A09 (Fab, V domains shown)
VH: B1 VH with M31Y, S53P, S59A
VL: B1 VL
B15: X0106-B02 (antibody, V domains shown)
VH: B1 VH with M31W, Y57P, S59F
VL: B1 VL with D1E, Q3V, M4L, Y83F
B16: X0106-E04 (antibody, V domains shown)
VH: B6 VH
VL: B1 VL with D1E, Q3V, M4L, Y83F
B17: 539A-M0237-D02 hIgG1 (antibody, V domains shown)
VH: B1 VH with M31Q, D33P, V50Y, Y52V, S53P, Y57R, S59Y
VL: B1 VL
B18: X0106-C03 (antibody, V domains shown)
VH: B1 VH with M31V, S53P, Y57A, S59Y
VL: B1 VL with D1E, Q3V, M4L, Y83F
B19: X0106-F05 (antibody, V domains shown)
VH: B1 VH with M31L, S59G
VL: B1 VL with D1E, Q3V, M4L, Y83F

molecular target: mouse MMP-2 (R&D Systems #924-MP-010) (mouse) (UniProt P33434); experiment: Ki,app, enzyme inhibition assay (fluorogenic peptide substrate), small-scale sFab

Ki [nM] | Binder
25 | B1
18 | B2
30 | B3
59 | B4
46 | B5
5.4 | B6
2.7 | B7
15 | B8
4.2 | B9
2.2 | B10
32 | B11
22 | B12
3.7 | B13
21 | B14

molecular target: mouse MMP-2 (R&D Systems #924-MP-010) (mouse) (UniProt P33434); experiment: Ki,app, enzyme inhibition assay (fluorogenic peptide substrate), medium-scale sFab

Ki [nM] | Binder
25 | B1
18 | B2
30 | B3
59 | B4
46 | B5
5.4 | B6
2.7 | B7
15 | B8
4.2 | B9
2.2 | B10
32 | B11
22 | B12
3.7 | B13
21 | B14

molecular target: mouse MMP-2 (R&D Systems #924-MP-010) (mouse) (UniProt P33434); experiment: Ki,app, enzyme inhibition assay (fluorogenic peptide substrate), IgG

Ki [nM] | Binder
4.2 | B15
3.9 | B16
76 | B17
3.2 | B18
3 | B19
